Values quoted from earlier work, collected in paper PMC5758107.
pKd: −log10 of the molar value. Values joined by “and” are separate entries in the source; they are usually repeats but may differ in a detail not shown here. Equal entries are not always repeated.

Target: Foc ribosome-nascent chain complex (Escherichia coli) (UniProt P68699)
Test: fluorescence correlation spectroscopy

Chain of UniProt P68699 (P68699 whole entry, one chain of several): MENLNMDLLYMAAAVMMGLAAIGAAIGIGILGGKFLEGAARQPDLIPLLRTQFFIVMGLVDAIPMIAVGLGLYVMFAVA

pKd: 6.68 and 7.07
Substance: YidC (from UniProt P25714)
